Source: patent US20170002055A1, “Novel peptides and combination of peptides for use in immunotherapy against ovarian cancer and other cancers” (immatics biotechnologies GmbH, priority 2015, published 2017)

What follows are substances tested against HLA-A*02:01 (Homo sapiens, UniProt P04439, D140Y/D185E/D98H/E176V/E277Q/G131W/G231S/I119V/I121R/I166T/I218V/L300P/L318F/N151K/N90K/P208A/P217A/Q86G/Q94H/R138H/R169H/T345S) (assay: MHC binding assay (UV-ligand exchange, β2m ELISA, peptide exchange yield)). Details: MHC class I binding score; binding to HLA-A*02:01 ranged by peptide exchange yield (UV-ligand exchange, β2m ELISA).
Method in brief: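 Binding is expressed as peptide exchange yield: stabilized MHC complexes were quantified by β2m ELISA, with a 450 nm TMB read-out on streptavidin-coated plates. Complexes came from UV-ligand exchange, where UV irradiation cleaves a photolabile peptide so the candidate peptide can load.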
In the case of “279 (ALWGGTQPLL; listed as Homo sapiens) [compound 279]”, the Peptide exchange is reported as ““++” (≧20% = ++)”.
For “280 (VLPDPEVLEAV; listed as Homo sapiens) [compound 280]”, the Peptide exchange was ““+++” (≧50 = +++)”.
For “281 (ILRESTEEL; listed as Homo sapiens) [compound 281]”, the Peptide exchange was ““+++” (≧50 = +++)”.
“282 (LLADVVPTT; listed as Homo sapiens) [compound 282]” was tested, and the Peptide exchange was ““+++” (≧50 = +++)”.
“284 (ILLSQTTGV; listed as Homo sapiens) [compound 284]” was tested, and the Peptide exchange was ““+++” (≧50 = +++)”.
“285 (QLLHVGVTV; listed as Homo sapiens) [compound 285]” was tested, and the Peptide exchange was ““+++” (≧50 = +++)”.
“286 (YLFPGIPEL; listed as Homo sapiens) [compound 286]” was tested, and the Peptide exchange was ““+++” (≧50 = +++)”.
“287 (FLNEFFLNV; listed as Homo sapiens) [compound 287]” was tested, and the Peptide exchange was ““+++” (≧50 = +++)”.
For “288 (NLINEINGV; listed as Homo sapiens) [compound 288]”, the Peptide exchange was ““+++” (≧50 = +++)”.
With “289 (VLLEIEDLQV; listed as Homo sapiens) [compound 289]” the Peptide exchange was ““++++” (≧75% = ++++)”.
In the case of “295 (VLDRESPNV; listed as Homo sapiens) [compound 295]”, the Peptide exchange is reported as ““+++” (≧50 = +++)”.
With “296 (FMEGAIIYV; listed as Homo sapiens) [compound 296]” the Peptide exchange was ““+++” (≧50 = +++)”.
With “297 (VLADIELAQA; listed as Homo sapiens) [compound 297]” the Peptide exchange was ““+++” (≧50 = +++)”.
“298 (VMITKLVEV; listed as Homo sapiens) [compound 298]” was tested, and the Peptide exchange was ““+++” (≧50 = +++)”.
“299 (YLLETSGNL; listed as Homo sapiens) [compound 299]” was tested, and the Peptide exchange was ““+++” (≧50 = +++)”.
In the case of “300 (ALLGQTFSL; listed as Homo sapiens) [compound 300]”, the Peptide exchange is reported as ““+++” (≧50 = +++)”.
In the case of “301 (FLVEDLVDSL; listed as Homo sapiens) [compound 301]”, the Peptide exchange is reported as ““+++” (≧50 = +++)”.
With “302 (ALLQEGEVYSA; listed as Homo sapiens) [compound 302]” the Peptide exchange was ““+++” (≧50 = +++)”.
“303 (AILPQLFMV; listed as Homo sapiens) [compound 303]” was tested, and the Peptide exchange was ““++++” (≧75% = ++++)”.
With “304 (MTLGQIYYL; listed as Homo sapiens) [compound 304]” the Peptide exchange was ““+++” (≧50 = +++)”.
In the case of “305 (SIANFSEFYV; listed as Homo sapiens) [compound 305]”, the Peptide exchange is reported as ““++++” (≧75% = ++++)”.
In the case of “306 (ALVNVQIPL; listed as Homo sapiens) [compound 306]”, the Peptide exchange is reported as ““+++” (≧50 = +++)”.
“307 (ALPVSLPQI; listed as Homo sapiens) [compound 307]” was tested, and the Peptide exchange was ““+++” (≧50 = +++)”.
In the case of “308 (SQYSGQLHEV; listed as Homo sapiens) [compound 308]”, the Peptide exchange is reported as ““+++” (≧50 = +++)”.
With “309 (GLFDGVPTTA; listed as Homo sapiens) [compound 309]” the Peptide exchange was ““+++” (≧50 = +++)”.
For “310 (FLVDTPLARA; listed as Homo sapiens) [compound 310]”, the Peptide exchange was ““++++” (≧75% = ++++)”.
In the case of “311 (RLYTGMHTV; listed as Homo sapiens) [compound 311]”, the Peptide exchange is reported as ““+++” (≧50 = +++)”.
With “312 (IISDLTIAL; listed as Homo sapiens) [compound 312]” the Peptide exchange was ““+++” (≧50 = +++)”.
“313 (VLFDDELLMV; listed as Homo sapiens) [compound 313]” was tested, and the Peptide exchange was ““+++” (≧50 = +++)”.
For “314 (ALIAEGIALV; listed as Homo sapiens) [compound 314]”, the Peptide exchange was ““+++” (≧50 = +++)”.
With “315 (YLQDVVEQA; listed as Homo sapiens) [compound 315]” the Peptide exchange was ““+++” (≧50 = +++)”.
In the case of “316 (ILLERLWYV; listed as Homo sapiens) [compound 316]”, the Peptide exchange is reported as ““+++” (≧50 = +++)”.
In the case of “317 (SLAALVVHV; listed as Homo sapiens) [compound 317]”, the Peptide exchange is reported as ““+++” (≧50 = +++)”.
With “318 (GLINTGVLSV; listed as Homo sapiens) [compound 318]” the Peptide exchange was ““++” (≧20% = ++)”.
“320 (KMFEFVEPLL; listed as Homo sapiens) [compound 320]” was tested, and the Peptide exchange was ““++++” (≧75% = ++++)”.
With “321 (GLFEDVTQPGILL; listed as Homo sapiens) [compound 321]” the Peptide exchange was ““++++” (≧75% = ++++)”.
For “322 (TLMTSLPAL; listed as Homo sapiens) [compound 322]”, the Peptide exchange was ““+++” (≧50 = +++)”.
“324 (FLYDEIEAEV; listed as Homo sapiens) [compound 324]” was tested, and the Peptide exchange was ““+++” (≧50 = +++)”.
For “325 (FIMPATVADATAV; listed as Homo sapiens) [compound 325]”, the Peptide exchange was ““+++” (≧50 = +++)”.
For “326 (FLPEALDFV; listed as Homo sapiens) [compound 326]”, the Peptide exchange was ““+++” (≧50 = +++)”.
“327 (GLAPFTEGISFV; listed as Homo sapiens) [compound 327]” was tested, and the Peptide exchange was ““+++” (≧50 = +++)”.
With “328 (ALNDQVFEI; listed as Homo sapiens) [compound 328]” the Peptide exchange was ““+++” (≧50 = +++)”.
For “329 (FLVTLNNVEV; listed as Homo sapiens) [compound 329]”, the Peptide exchange was ““++++” (≧75% = ++++)”.
In the case of “330 (QLALKVEGV; listed as Homo sapiens) [compound 330]”, the Peptide exchange is reported as ““+++” (≧50 = +++)”.
“331 (KVDTVWVNV; listed as Homo sapiens) [compound 331]” was tested, and the Peptide exchange was ““+++” (≧50 = +++)”.
In the case of “332 (YLISELEAA; listed as Homo sapiens) [compound 332]”, the Peptide exchange is reported as ““+++” (≧50 = +++)”.
In the case of “333 (FLPDANSSV; listed as Homo sapiens) [compound 333]”, the Peptide exchange is reported as ““++” (≧20% = ++)”.
With “334 (TLTKVLVAL; listed as Homo sapiens) [compound 334]” the Peptide exchange was ““+++” (≧50 = +++)”.
With “335 (YSLSSVVTV; listed as Homo sapiens) [compound 335]” the Peptide exchange was ““+++” (≧50 = +++)”.
In the case of “336 (ILLTAIVQV; listed as Homo sapiens) [compound 336]”, the Peptide exchange is reported as ““+++” (≧50 = +++)”.
For “337 (HLLSELEAAPYL; listed as Homo sapiens) [compound 337]”, the Peptide exchange was ““++++” (≧75% = ++++)”.
In the case of “339 (GLWEIENNPTVKA; listed as Homo sapiens) [compound 339]”, the Peptide exchange is reported as ““++++” (≧75% = ++++)”.
In the case of “340 (ALLSMTFPL; listed as Homo sapiens) [compound 340]”, the Peptide exchange is reported as ““++++” (≧75% = ++++)”.
“341 (SQIALNEKLVNL; listed as Homo sapiens) [compound 341]” was tested, and the Peptide exchange was ““+++” (≧50 = +++)”.
“342 (HIYDKVMTV; listed as Homo sapiens) [compound 342]” was tested, and the Peptide exchange was ““+++” (≧50 = +++)”.
“343 (SLLEVNEESTV; listed as Homo sapiens) [compound 343]” was tested, and the Peptide exchange was ““+++” (≧50 = +++)”.
With “344 (YLQDQHLLLTV; listed as Homo sapiens) [compound 344]” the Peptide exchange was ““+++” (≧50 = +++)”.
With “345 (VIWKALIHL; listed as Homo sapiens) [compound 345]” the Peptide exchange was ““+++” (≧50 = +++)”.
For “346 (LLDSKVPSV; listed as Homo sapiens) [compound 346]”, the Peptide exchange was ““+++” (≧50 = +++)”.
In the case of “347 (SLFKHDPAAWEA; listed as Homo sapiens) [compound 347]”, the Peptide exchange is reported as ““++++” (≧75% = ++++)”.
“348 (ILLDVKTRL; listed as Homo sapiens) [compound 348]” was tested, and the Peptide exchange was ““++++” (≧75% = ++++)”.
With “349 (SLTEYLQNV; listed as Homo sapiens) [compound 349]” the Peptide exchange was ““++++” (≧75% = ++++)”.
In the case of “350 (ALLDVTHSELTV; listed as Homo sapiens) [compound 350]”, the Peptide exchange is reported as ““+++” (≧50 = +++)”.
With “351 (SLIPNLRNV; listed as Homo sapiens) [compound 351]” the Peptide exchange was ““+++” (≧50 = +++)”.
With “352 (SLLELLHIYV; listed as Homo sapiens) [compound 352]” the Peptide exchange was ““+++” (≧50 = +++)”.
“353 (YLFEMDSSL; listed as Homo sapiens) [compound 353]” was tested, and the Peptide exchange was ““++” (≧20% = ++)”.
With “354 (LILEGVDTV; listed as Homo sapiens) [compound 354]” the Peptide exchange was ““++” (≧20% = ++)”.
With “355 (SIQQSIERLLV; listed as Homo sapiens) [compound 355]” the Peptide exchange was ““++” (≧20% = ++)”.
“356 (KLLGKLPEL; listed as Homo sapiens) [compound 356]” was tested, and the Peptide exchange was ““+++” (≧50 = +++)”.
For “357 (SMHDLVLQV; listed as Homo sapiens) [compound 357]”, the Peptide exchange was ““+++” (≧50 = +++)”.
In the case of “358 (ALDEYTSEL; listed as Homo sapiens) [compound 358]”, the Peptide exchange is reported as ““++++” (≧75% = ++++)”.
For “359 (YLLPESVDL; listed as Homo sapiens) [compound 359]”, the Peptide exchange was ““+++” (≧50 = +++)”.
“361 (ALYELEGTTV; listed as Homo sapiens) [compound 361]” was tested, and the Peptide exchange was ““+++” (≧50 = +++)”.
For “362 (TLYGLSVLL; listed as Homo sapiens) [compound 362]”, the Peptide exchange was ““+++” (≧50 = +++)”.
For “363 (KVLDVSDLESV; listed as Homo sapiens) [compound 363]”, the Peptide exchange was ““++” (≧20% = ++)”.
With “364 (LLQNEQFEL; listed as Homo sapiens) [compound 364]” the Peptide exchange was ““+++” (≧50 = +++)”.
In the case of “365 (YVIDQGETDVYV; listed as Homo sapiens) [compound 365]”, the Peptide exchange is reported as ““+++” (≧50 = +++)”.
